From US20200376136A1 (Regeneron, published 2020)

Tests used:
[1] = biological target: T1, human six-transmembrane epithelial antigen of prostate 2 (STEAP2) (human, UniProt Q8NFT2 1-490); experiment: FACS on C4-2 cells (endogenous STEAP2), MFI fold above unstained, average at 100-300 nM antibody
T1 construct: also called hSTEAP2
T1 sequence: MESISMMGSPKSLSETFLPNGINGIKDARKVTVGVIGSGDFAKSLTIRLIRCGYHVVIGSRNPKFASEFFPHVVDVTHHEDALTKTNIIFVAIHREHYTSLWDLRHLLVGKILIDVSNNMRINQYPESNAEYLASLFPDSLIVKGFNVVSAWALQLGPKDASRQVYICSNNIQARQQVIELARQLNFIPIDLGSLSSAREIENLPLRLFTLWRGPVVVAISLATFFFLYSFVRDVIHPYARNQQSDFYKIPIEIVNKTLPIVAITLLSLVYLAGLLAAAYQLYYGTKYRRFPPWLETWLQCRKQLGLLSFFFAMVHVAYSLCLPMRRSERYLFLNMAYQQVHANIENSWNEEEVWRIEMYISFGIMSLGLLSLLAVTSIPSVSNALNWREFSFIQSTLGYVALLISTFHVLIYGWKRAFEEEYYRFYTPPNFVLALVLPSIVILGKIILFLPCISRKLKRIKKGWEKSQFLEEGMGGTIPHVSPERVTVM
Method: (§1) Briefly, 1×10⁵ cells were incubated with 10 μg/ml of anti STEAP2 antibodies, or isotype control antibodies for 30 min on ice in antibody dilution buffer. Following one wash with antibody dilution buffer, cells were incubated with 10 μg/ml of PE conjugated anti-human or antimouse Fc secondary antibodies for 30 min on ice. Following one additional wash, samples were incubated with Cytofix (1% formaldehyde) for 20 minutes. After one final wash, samples were filtered through a Pall 96 well filtration block, run on a Hypercyt® cytometer and analyzed in ForeCyt™ (IntelliCyt, Albuquerque, N. Mex.). Mean fluorescence intensities (MFI) were expressed as fold change above unstained levels (background). The average fold above background at antibody concentrations of 100-300 nM were determined.

[2] = biological target: T1, human six-transmembrane epithelial …; experiment: FACS on HEK293 cells (low STEAP2), MFI fold above unstained, average at 100-300 nM antibody
Method: as §1

[3] = biological target: T1, human six-transmembrane epithelial …; experiment: FACS titration on C4-2 cells (endogenous STEAP2), 4-parameter fit
Method: as §1

B1: H1H7809N (antibody, human IgG1, V domains shown)
VH: QVQLVESGGGVVQPGRSLGLSCAASGFTFSSYGMHWVRQAPGKGLEWVAVIWYDGSNKYYVDSVKGRFTISRDNSKNTLYLQMNSLRAEDTAVYYCAREGLRFLENYYYYYGMDVWGQGTTVTVSS
VL: EIVLTQSPGTLSLSPGERATLSCRASQSISSTYLAWYQQRPGQAPRLLIYGASSRATGIPDRFSGSGSGTDFTLTISRLEPEDFAVYYCQQYGTSPYTFGQGTKLEIK
[1]
  Avg F.A.B (fold above background): 89 fold above background
[2]
  Avg F.A.B (fold above background): 31 fold above background
[3]
  EC50: > 50 nM

B2: H1H7972P (antibody, human IgG1, V domains shown)
VH: QVQLQQSGPGLVKPSQTLSLTCAISGDSVSSNSAAWNWIRQSPSRGLEWLGRTYYRSKWYNDYVVSVKSRIIFNPDTSKNQFSLQLNSVTPEDTAVYYCARVRQDYRSGPFDYWGQGTLVTVSS
VL: EIVMTQSPVTLSVSPGERATLSCWASQSVSSSLAWYQQKPGQAPRLLIYGASTRATGIPARFSGSGSGTGFTLTISSLQSEDFAVYYCQQYNNWPFTFGPGTKVDIK
[1]
  Avg F.A.B (fold above background): 119 fold above background
[2]
  Avg F.A.B (fold above background): 4 fold above background
[3]
  EC50: 9 nM

B3: H1H11894P2 (antibody, human IgG1, V domains shown)
VH: QVQLVQSGAEVKKPGSSVKVSCRASGGTFSRFAIGWVRQAPGQGLEWMGGIIPIFGTASYAQKFQGRVTITTDESTSTAYMELRSLRSEDTAVYYCTREGITGRGYYYYGMDVWGQGTTVTVSS
VL: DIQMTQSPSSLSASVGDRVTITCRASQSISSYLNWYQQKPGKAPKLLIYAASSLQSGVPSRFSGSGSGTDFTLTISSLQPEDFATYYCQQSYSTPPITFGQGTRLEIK
[1]
  Avg F.A.B (fold above background): 7 fold above background
[2]
  Avg F.A.B (fold above background): 4 fold above background

B4: H1H11880P (antibody, human IgG1, V domains shown)
VH: EVQLVESGGGLVQPGGSLRLSCAASGFTFSTYAMHWVRQAPGKGLQHVSTISTNGVNTYYADSVKGRFTISRDNSKSTLYLQMGSLRAEDMAVYYCARDKDFWSGYFDYWGQGTLVTVSS
VL: EIVMTQSPGTLSVSPGERATLSCRASQSVSSNLAWYHQKPGQAPRLLIYGASTRATGFPARFSGSGSGTEFTLTISSLQSEDFAAYYCQQYNNWPITFGQGTRLEIK
[1]
  Avg F.A.B (fold above background): 6 fold above background
[2]
  Avg F.A.B (fold above background): 7 fold above background
[3]
  EC50: 5 nM

B5: H1H11892P2 (antibody, human IgG1, V domains shown)
VH: EVQLVESGGGLVQPGGSLRLSCATSGFTFSNYDFHWVRQIRGQGLEWVSTIDTAGDTYFSGSVKGRFTISRDTAKTSLYLQMNSLRAGDTAVYYCARAPRYDSTGNYYNYYSYFGLDVWGQGTTVTVSS
VL: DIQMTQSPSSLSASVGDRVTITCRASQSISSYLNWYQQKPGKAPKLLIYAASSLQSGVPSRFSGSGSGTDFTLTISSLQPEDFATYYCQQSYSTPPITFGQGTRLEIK
[1]
  Avg F.A.B (fold above background): 4 fold above background
[2]
  Avg F.A.B (fold above background): 3 fold above background

B6: H1H11895P2 (antibody, human IgG1, V domains shown)
VH: QVQLQESGPGLVKPSETLSLTCTVSGGSISIYYWTWIRQPPGKGLEWIGNIFYSGSTNYNPSLKSRVTISVDTSKNQFSLKLSSVTAADTAVYYCARERLGRYDAFDNWGQGTMVTVSS
VL: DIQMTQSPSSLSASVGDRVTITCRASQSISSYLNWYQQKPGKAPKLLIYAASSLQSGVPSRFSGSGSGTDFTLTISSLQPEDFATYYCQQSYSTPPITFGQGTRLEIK
[1]
  Avg F.A.B (fold above background): 6 fold above background
[2]
  Avg F.A.B (fold above background): 4 fold above background
[3]
  EC50: 16 nM

B7: H1H11893P2 (antibody, human IgG1, V domains shown)
VH: QVQLVQSGAEVKKPGASVKVSCKVSGYTLTELSMHWVRQAPGKGLEWMGSFDPEDDETIYAQKFQGRVTMTEDTSTDTAYMDLSSLRSEDTAVYYCSIEEVRWRGSDYYYVMDVWGQGTTVTVSS
VL: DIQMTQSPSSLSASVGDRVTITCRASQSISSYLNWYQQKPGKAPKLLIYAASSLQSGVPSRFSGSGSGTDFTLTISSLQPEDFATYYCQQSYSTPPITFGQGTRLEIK
[1]
  Avg F.A.B (fold above background): 9 fold above background
[2]
  Avg F.A.B (fold above background): 3 fold above background
[3]
  EC50: 21 nM

B8: H1H11163N (antibody, human IgG1, V domains shown)
VH: QVQLQQSGPGLVKPSQALSLTCAISGDSVSSNSAAWNWIRQSPSRGLEWLGRTYYRSKWYNDYAVSVKSRITINPDTSKNHFSLHLNSMTPEDTAVYYCARARIVVVPGPEVYYYYYYDMDVWGQGTTVTVSS
VL: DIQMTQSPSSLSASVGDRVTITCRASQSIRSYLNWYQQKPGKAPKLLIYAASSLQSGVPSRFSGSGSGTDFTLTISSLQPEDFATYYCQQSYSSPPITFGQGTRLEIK
[1]
  Avg F.A.B (fold above background): 90 fold above background
[2]
  Avg F.A.B (fold above background): 6 fold above background
[3]
  EC50: 3 nM

B9: H1H11243N (antibody, human IgG1, V domains shown)
VH: QVQLQQSGPGLVKPSQTLSLTCAISGDSVSSNSAAWNWIRQSPSRGLEWLGRTYYRSKWYNDYAVSVKSRITINPDTSKNQFSLHLNSVTPEDTAVYYCARAGIVVVPGPDIYYYYYYGMDVWGQGTTVTVSS
VL: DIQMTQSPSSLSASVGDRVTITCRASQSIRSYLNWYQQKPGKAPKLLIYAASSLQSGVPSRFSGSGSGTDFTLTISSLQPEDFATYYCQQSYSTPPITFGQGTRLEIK
[1]
  Avg F.A.B (fold above background): 41 fold above background
[2]
  Avg F.A.B (fold above background): 3 fold above background

B10: H1H11162N (antibody, human IgG1, V domains shown)
VH: QVQLQQSGPGLVKPSQTLSLTCAISGDSVSSNRAAWNWIRQSPSRGLQWLGRTYYRSKWYNDYAVSLRSRITINPVTSKNQVALHMNSVTPEDTAVYYCARAGIVVVPGPETFYYYDHGLDVWGQGTTVTVSS
VL: DIQMTQSPSSLSASVGDRVTITCRASQSIRSYLNWYQQKPGKAPELLIHAASSLQSGVPSRFSGSGSGTDFTLTISSLQPEDFASYYCQQSYSAPPITFGQGTRLEIK
[1]
  Avg F.A.B (fold above background): 104 fold above background
[2]
  Avg F.A.B (fold above background): 10 fold above background
[3]
  EC50: 1 nM

B11: H1H11164N (antibody, human IgG1, V domains shown)
VH: QVQLQQSGPGLVKPSQTLSLTCVISGDSVSTNSAAWNWIRQSPSRGLEWLGRTYYRSKWYNDYAVSVRSRITINPVTSKNQVALHLNSVTPEDTAVYYCARAGIVVVPGPETYYYYYHGLDVWGQGTTVTVSS
VL: DIQMTQSPSSLSASVGDRVTITCRASQNIRSYLNWYQQKPGKAPKLLIHVASSLQSGVPSRFSGSGSGTDFTLTISSLQPEDFATYYCQQSYSTPPITFGHGTRLEIK
[1]
  Avg F.A.B (fold above background): 117 fold above background
[2]
  Avg F.A.B (fold above background): 10 fold above background
[3]
  EC50: 2 nM

B12: H1H11878P (antibody, human IgG1, V domains shown)
VH: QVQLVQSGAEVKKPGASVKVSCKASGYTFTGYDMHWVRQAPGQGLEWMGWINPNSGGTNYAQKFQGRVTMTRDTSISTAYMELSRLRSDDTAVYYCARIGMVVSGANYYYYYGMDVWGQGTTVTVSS
VL: AIQMTQSPSSLSAYVGDRVIITCRASQGIRNDLGWYQQKPGKAPKLLIYAASSLQSGVPSRFSGSRSGTVFTLTISSLQPEDFATYYCLQDYNYPWTFGQGTKVEIK
[1]
  Avg F.A.B (fold above background): 27 fold above background
[2]
  Avg F.A.B (fold above background): 5 fold above background
[3]
  EC50: > 50 nM

B13: H1H7814N (antibody, human IgG1, V domains shown)
VH: QVQLVESGGGVVQPGRSLRLSCVASGFTISSYGMNWVRQAPGKGLEWVAVISYDGGNKYSVDSVKGRFTISRDNSKNTLYLQMNSLRAEDSAVYYCARGRYFDLWGRGTLVTVSS
VL: DIQMTQSPSTLSASVGDRVTITCRASQSISSWLAWYQQKPGRAPNLLISKASSLKSGVPSRFSGSGSGTEFTLTVSSLQPDDFATYYCQQYYSYSYTFGQGTKLEIK
[1]
  Avg F.A.B (fold above background): 96 fold above background
[2]
  Avg F.A.B (fold above background): 2 fold above background
[3]
  EC50: 4 nM

B14: H1H7810N (antibody, human IgG1, V domains shown)
VH: QVQLVESGGGVVQPGRSLRLSCAVSGFTSSTYGMNWVRQAPGKGLEWVAVISYDGSNKYYADSVKGRFTISRDNSKNTLYLQMNSLRPEDTAVYYCARGRYFDLWGRGTLVTVSS
VL: DIQMTQSPSTLSASVGDRVTITCRASQIISSWLAWYQQKPGKAPKLLIYKASSLASGVPSRFSGSGSGTEFTLTISSLQPDDFATYYCQQYKSYSYTFGQGTKLEIK
[1]
  Avg F.A.B (fold above background): 26 fold above background
[2]
  Avg F.A.B (fold above background): 3 fold above background

B15: H1H7811N (antibody, human IgG1, V domains shown)
VH: QVQLVESGGGVVQPGRSLRLSCAVSGFTSSTYGMNWVRQAPGKGLEWVAVISFDGSNKYYADSVKGRFTISRDNSKNTLYLQMSSLRPEDTAVYYCARGRYFDLWGRGTLVTVSS
VL: DTQMTQSPSTLSASVGDRVTITCRASQIISSWLAWYQQKPGKAPKLLIYKASSLASGVPSRFSGSGSGTEFTLTISSLQPDDFATYYCQQYKSYSYTFGQGTNLEIK
[1]
  Avg F.A.B (fold above background): 65 fold above background
[2]
  Avg F.A.B (fold above background): 5 fold above background
[3]
  EC50: > 50 nM

B16: H1H11888P2 (antibody, human IgG1, V domains shown)
VH: QVQLQESGPGLVKPSQTLSLTCTVSGYSINSGGHFWSWIRQHPGKGLEWIGDIYYSGNTYSIPSLKRRISMSVDTSKNHFSLKLISVTAADTAIYYCARNSGGYLDAFDIWGQGTMVTVSS
VL: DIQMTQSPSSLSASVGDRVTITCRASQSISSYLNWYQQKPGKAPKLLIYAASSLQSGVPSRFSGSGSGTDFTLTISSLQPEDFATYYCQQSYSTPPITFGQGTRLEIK
[1]
  Avg F.A.B (fold above background): 6 fold above background
[2]
  Avg F.A.B (fold above background): 9 fold above background
[3]
  EC50: 3 nM
